Among the data in US20110076234A1 (MOLMED, published 2011) are EC50 values, retold here.

In this assay the target is T1, Human αvβ3 integrin (purified) (human, UniProt P06756 31-1048; P05106 27-788).
T1 construct: Bought purified integrin, adsorbed on microtiter plates (0.5-2 µg/ml in DPBS with Ca2+ and Mg2+); also called avβ3; vitronectin receptor
Description: competitive ELISA on αvβ3-coated plates with biotinylated NGR-TNF as labelled ligand (legend of FIG. 7). For orientation: An ELISA detects its analyte on a solid surface through an enzyme-linked reagent.

*1 amine or outer side, *2 acyl side, *3 side chain or, on linkers, in order; H or OH if unused. Where no end group is shown, it is not given here. [ ]: non-standard residue; d: D form. βAsp = O=C(O)[C@H](CC(=O)[*:2])N[*:1]

T1 sequence (P06756 31-1048, form in doubt, chain 1 of 2): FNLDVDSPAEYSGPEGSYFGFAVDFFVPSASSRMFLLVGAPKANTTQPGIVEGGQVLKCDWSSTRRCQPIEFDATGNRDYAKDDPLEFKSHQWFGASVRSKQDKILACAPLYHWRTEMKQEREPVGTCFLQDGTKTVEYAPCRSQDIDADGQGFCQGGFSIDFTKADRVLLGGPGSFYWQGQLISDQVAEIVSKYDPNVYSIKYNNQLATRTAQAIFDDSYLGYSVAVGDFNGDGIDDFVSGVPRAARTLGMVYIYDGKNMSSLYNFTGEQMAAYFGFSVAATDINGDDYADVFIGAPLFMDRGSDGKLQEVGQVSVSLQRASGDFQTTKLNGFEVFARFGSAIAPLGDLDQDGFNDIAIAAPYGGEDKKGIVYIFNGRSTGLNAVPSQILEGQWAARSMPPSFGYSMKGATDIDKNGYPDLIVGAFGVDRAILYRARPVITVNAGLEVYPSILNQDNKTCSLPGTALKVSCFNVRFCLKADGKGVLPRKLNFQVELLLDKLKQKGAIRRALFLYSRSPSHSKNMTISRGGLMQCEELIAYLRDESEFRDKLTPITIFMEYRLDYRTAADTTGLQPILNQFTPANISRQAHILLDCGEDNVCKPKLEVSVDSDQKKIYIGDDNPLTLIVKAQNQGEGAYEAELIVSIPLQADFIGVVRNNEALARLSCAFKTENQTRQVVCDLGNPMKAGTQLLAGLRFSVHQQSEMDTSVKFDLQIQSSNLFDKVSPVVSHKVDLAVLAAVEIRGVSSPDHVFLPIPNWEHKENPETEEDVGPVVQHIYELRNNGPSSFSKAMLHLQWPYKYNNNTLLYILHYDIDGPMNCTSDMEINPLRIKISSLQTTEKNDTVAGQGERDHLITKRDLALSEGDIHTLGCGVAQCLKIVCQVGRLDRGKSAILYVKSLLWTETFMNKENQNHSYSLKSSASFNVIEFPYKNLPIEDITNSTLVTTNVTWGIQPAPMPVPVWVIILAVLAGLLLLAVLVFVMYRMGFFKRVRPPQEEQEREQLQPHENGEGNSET
T1 sequence (P05106 27-788, form in doubt, chain 2 of 2): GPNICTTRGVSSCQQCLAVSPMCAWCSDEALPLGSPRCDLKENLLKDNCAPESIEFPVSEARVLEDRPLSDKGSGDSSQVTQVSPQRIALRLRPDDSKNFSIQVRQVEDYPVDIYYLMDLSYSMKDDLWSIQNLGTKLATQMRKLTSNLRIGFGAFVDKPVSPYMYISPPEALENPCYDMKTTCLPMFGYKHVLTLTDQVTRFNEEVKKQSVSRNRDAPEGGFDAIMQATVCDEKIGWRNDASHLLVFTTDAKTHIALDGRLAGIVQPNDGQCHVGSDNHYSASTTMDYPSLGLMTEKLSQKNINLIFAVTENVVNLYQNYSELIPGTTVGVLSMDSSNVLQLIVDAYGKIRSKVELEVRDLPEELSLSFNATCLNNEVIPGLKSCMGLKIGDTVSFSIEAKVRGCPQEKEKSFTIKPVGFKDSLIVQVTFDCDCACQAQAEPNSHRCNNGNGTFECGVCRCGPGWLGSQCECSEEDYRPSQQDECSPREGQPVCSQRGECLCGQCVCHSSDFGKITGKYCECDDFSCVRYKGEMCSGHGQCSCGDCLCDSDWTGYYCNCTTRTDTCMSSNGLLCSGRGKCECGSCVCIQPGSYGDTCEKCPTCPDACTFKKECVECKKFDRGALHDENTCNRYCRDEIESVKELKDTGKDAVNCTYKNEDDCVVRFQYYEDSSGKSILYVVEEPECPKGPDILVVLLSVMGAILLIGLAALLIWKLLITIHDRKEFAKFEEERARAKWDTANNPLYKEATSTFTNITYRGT

By EC50 is commonly meant the concentration giving half of the maximal effect. Read a high EC50 as lower potency in that assay. C[βAsp]GRCGVRY (cysteine pairing not given here) [isoDGR-pep (sequence of NGR-pep with L-isoD in place of N)] returned an EC50 of 100 nM. This counts as sub-micromolar.

With C[dD]GRCGVRY (cysteine pairing not given here) [D-DGR-pep (sequence of NGR-pep with D-D in place of N)], the EC50 amounted to 100 nM.
